# Assay results as given in patent US20130217572A1, “SPECIFIC DELIVERY OF AGROCHEMICALS” (VRIJE UNIVERSITEIT BRUSSEL, priority 2010, published 2013).
# T1: potato lectin (Sigma) (potato, UniProt Q9S8M0 23-323)
# T1 construct: Bought glycoprotein, coated on ELISA plates
# T1 sequence (looked up): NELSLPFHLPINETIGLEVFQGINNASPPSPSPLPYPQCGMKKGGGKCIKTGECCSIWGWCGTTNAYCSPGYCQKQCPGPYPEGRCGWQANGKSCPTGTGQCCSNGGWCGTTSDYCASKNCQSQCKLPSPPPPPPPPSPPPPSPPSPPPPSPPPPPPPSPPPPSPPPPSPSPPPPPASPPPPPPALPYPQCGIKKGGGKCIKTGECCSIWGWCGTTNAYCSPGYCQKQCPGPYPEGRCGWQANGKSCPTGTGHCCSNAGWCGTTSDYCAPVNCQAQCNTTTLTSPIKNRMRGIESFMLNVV
# B1: VHH 3E6 (VHH)
# VHH: QVQLQESGGGLVQPGGTLSLSCAASGFNVRWYGMGWFRQAPGKEREGVACISALQETTAYADSVKGRFTLSRDNPKNTLSLQMNNLQPEDTGVYYCATTDCDDSSRMTYTSYLGQGTQVTVSS
# notes: also called Monovalent VHH 3E6
# Key:
# potato lectin (Sigma) [1] = target: T1, potato lectin (Sigma); assay: microcapsule retention; G: amine capsules, BS3 one-step, 1 ug VHH/cm2; potato lectin coat 10 ug/ml; 100% coverage
# potato lectin (Sigma) [2] = target: T1, potato lectin (Sigma); assay: microcapsule retention; G: amine capsules, BS3 one-step, 1 ug VHH/cm2; potato lectin coat 100 ug/ml; 10% coverage
# potato lectin (Sigma) [3] = target: T1, potato lectin (Sigma); assay: microcapsule retention; K: amine capsules, BS3 two-step, 1 ug VHH/cm2; potato lectin coat 100 ug/ml; 10% coverage
# potato lectin (Sigma) [4] = target: T1, potato lectin (Sigma); assay: microcapsule retention; G: amine capsules, BS3 one-step, 1 ug VHH/cm2; potato lectin coat 100 ug/ml; 100% coverage
# potato lectin (Sigma) [5] = target: T1, potato lectin (Sigma); assay: microcapsule retention; H: amine capsules, BS3 one-step, 0.1 ug VHH/cm2; potato lectin coat 1 ug/ml; 100% coverage
# potato lectin (Sigma) [6] = target: T1, potato lectin (Sigma); assay: microcapsule retention; L: amine capsules, BS3 two-step, 0.1 ug VHH/cm2; potato lectin coat 1 ug/ml; 100% coverage
# potato lectin (Sigma) [7] = target: T1, potato lectin (Sigma); assay: microcapsule retention; L: amine capsules, BS3 two-step, 0.1 ug VHH/cm2; potato lectin coat 10 ug/ml; 100% coverage
# potato leaf discs = assay: VHH binding at different pH; set-up: species or system potato (variety Désirée); conditions: 5 μg/ml; whole range tested from pH 2 to pH 11
# Description: In order to test applicability of VHH as binders for greenhouse or field applications where binding supposedly may occur at pH-values, deviating strongly from physiological conditions in which antibodies naturally bind their targets, a leaf dip VHH binding experiment was carried out in a series of solutions with different pH. The following solutions were prepared: 50 mM glycine pH 2.0, 50 mM sodium acetate pH 4.0, 50 mm sodium carbonate pH 9.6, and 10 mM sodium hydroxide pH 11.0. ø 8 mm potato leaf discs (variety Désirée) were cut using a puncher tool. The leaf discs were first equilibrated to the different pH by washing three times with solutions at different pH. Hexahistidine-tagged VHH were diluted to 5 μg/ml in solutions with different pH, added to the corresponding equilibrated leaf discs, and binding of VHH was allowed for 1 hour. After incubation with VHH, leaf discs were washed three times with solutions at the corresponding different pH. After that, all were washed two times with PBS to equilibrate leaf discs to PBS. Bound VHH were detected by incubation with monoclonal mouse anti-histidine antibodies directly conjugated with Alexa-488 fluorescent dye (Abd Serotec) in PBS for 1 hour. Unbound anti-histidine antibodies were removed by washing five times with PBS. Leaf discs were analyzed for bound VHH with microscopy.
# unrelated antigens [8] = assay: VHH-coupled Uvitex microcapsules retained on wells coated with unrelated antigen; 100% surface coverage
# unrelated antigens [9] = assay: VHH-coupled Uvitex OB microcapsules retained on wells coated with unrelated antigen; 4% surface coverage
# potato lectin (Sigma) [10] = target: T1, potato lectin (Sigma); assay: VHH-coupled Uvitex microcapsules on potato lectin-coated wells; 25-fold less microcapsules applied
# Description: An ELISA-like assay was performed using high bind half area microplates (Greiner Bio-One) coated with 5 μg/well potato lectin. Control wells included blank wells or wells coated with unrelated antigens. Plates were washed three times with PBS with 0.05%-TWEEN®-20 and blocked with 5% skimmed milk in PBS for 1 to 2 hours. VHH-coupled Uvitex-containing microcapsules were diluted to appropriate densities in 1% skimmed milk in PBS with 0.05%-TWEEN®-20. Five-fold serial dilution series were prepared and allowed to bind to the surface to compare binding of microcapsules coupled with monovalent or bivalent VHH. Microcapsules were added to the antigen-coated or control wells and allowed to bind for 1 hour. Unbound microcapsules were removed by washing five times with PBS with 0.05%-TWEEN®-20. The bottoms of ELISA plate wells were analyzed for bound microcapsules on a macrozoom microscope system (Nikon). Microcapsules were counted using Volocity image analysis software (Perkin Elmer). A DAPI filter was used to visualize Uvitex microcapsules.
# The surface area of microcapsules with coupled bivalent VHH was 15-fold above the surface area of blank microcapsules applied at this microcapsule density while the surface area of microcapsules with monovalent VHH was only six-fold above the surface area of blank microcapsules applied at this microcapsule density. […]
# unrelated antigens [11] = assay: VHH-coupled lambda-cyhalothrin microcapsules retained on wells coated with unrelated antigen; 4% surface coverage
Molecule,microcapsule counts (microcapsules) (potato lectin (Sigma) [1]),microcapsule counts (microcapsules) (potato lectin (Sigma) [2]),microcapsule counts (microcapsules) (potato lectin (Sigma) [3]),microcapsule counts (microcapsules) (potato lectin (Sigma) [4]),microcapsule counts (microcapsules) (potato lectin (Sigma) [5]),microcapsule counts (microcapsules) (potato lectin (Sigma) [6]),microcapsule counts (microcapsules) (potato lectin (Sigma) [7]),binding to leaf discs at different pH (potato leaf discs),surface area of bound microcapsules (unrelated antigens [8]),area of bound microcapsules (unrelated antigens [9]),fold of surface area above blank microcapsules (potato lectin (Sigma) [10]),counts of bound microcapsules (microcapsules) (unrelated antigens [11])
Control VHH,104,36,285,150,173,860,787,–,–,–,–,–
B1,–,–,–,–,–,–,–,showed detectable binding,69.5,23.5,6 fold,386
